From EP4553085A1 (Hangzhou Sumgen Biotech Co., Ltd., dated 2025)

B1: chimeric antibody 1A2-7 (antibody, V domains shown)
VH: QVQLQQPGAELVKPGASVKLSCKASGYTFTSYWMHWVKQRPGQGLEWIGEINPSNGRTNYNEKFKSKATLTVDKSSSTAYMQLNSLTSEDSAVYYCARDRYDEGNAMDYWGQGTSVTVSS
VL: DIVMTQTTSSLSASLGDRVTISCRASQDITNYLNWYQQKPDGTVKLLIYYTSRLHSGVPSRFSGSGSGTDYSLTISNLEQEDIATYFCQQGDTLPRTFGGGTKLEIK
B2: chimeric antibody 3G9-1 (antibody, V domains shown)
VH: QVQLQQPGAELVKPGASVKLSCKASGYTFTSYWMHWVKQRPGQGLEWIGEINPSNGRTNYNEKFKSKATLIVDKSSSTAYMQLSSLTSEDSAVYYCARGIYYGYDYAMDYWGQGTSVTVSS
VL: DIQMTHTTSSLSASLGDRVTISCRASQDISNYLNWYQQKPDGTVKLLIYYTSRLHSGVPSRFSGSGSGTDYSLTISNLEQEDIATYFCQQGNTLPPTFGGGTKLEIK
B3: chimeric antibody 3A2-18 (antibody, V domains shown)
VH: EVQLQQPGAELVKPGASVKLSCKASGYTFTSYWMHWVKQRPGQGLEWIGEINPSNGRTNYNEKFKSKATLTVDKSSSTAYVQLNSLTSEDSAVYYCARDRYDEGNAMDYWGQGTSVTVSS
VL: DIVMTQTTSSLSASLGDRVTISCRASQDITNYLNWYQQKPDGTVKLLIYYTSRLHSGVPSRFSGSGSGTDYSLTISNLEQEDIATYFCQQGDTLPRTFGGGTKLEIK
B4: chimeric antibody 5E11-2 (antibody, V domains shown)
VH: EVKLEESGGGLVQPGGSMKLSCAASGFTFSDAWMDWVRQSPEKGLEWVAEIRSKPNNHATYYAESVKGRFTISRDDSKSSVYLQMNSLRAEDTGIYYCTRTTDYSMDYWGQGTSVTVSS
VL: DIQMTQSPASLAVSLGQRATISCRASQSVSASSYSYMHWYQQKPGQPPKLLIKYASNLQSGVPARFSGSGSGTDFTLNIHPVEEEDSATYYCQHSWEIPRTFGGGTKLEIK

Target: T1, Human LILRB4/CD85k/ILT3 Protein (ECD, His Tag), Sino Biological (human, UniProt Q8NHJ6 22-259)
T1 construct: extracellular domain; Bought protein; it is not tied to this bought protein; also called LILRB4 protein; not shown: His tag
Assay: ELISA, coated LILRB4 ECD-His

Binding result, binds:
B1
B2
B3
B4
